Sequences and labels used below:
B1: Antibody C (antibody, human IgG1, kappa, V domains shown)
VH: EVQLVQSGAEVKKPGESLKISCKGSGYSFTRYWIAWVRQMPGKGLEWMGIIFPGDSHTGYSPSFQGQVTISADRSISTAYLQWSSLKASDTAMYYCARTREGYFDYWGQGTLVTVSS
VL: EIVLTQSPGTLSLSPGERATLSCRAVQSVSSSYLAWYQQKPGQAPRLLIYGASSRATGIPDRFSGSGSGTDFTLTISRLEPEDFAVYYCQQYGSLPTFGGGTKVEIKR
notes: Variable-region variant of GPC3.1, IgG1/kappa; also called variant antibody C
B2: Antibody A (antibody, human IgG1, kappa, V domains shown)
VH: EVQLVQSGAEVKKPGESLKISCKGSGYSFTSYWIAWVRQMPGKGLEWMGIIFPGDSHTGYSPSFQGQVTISADRSIRTAYLQWSSLKASDTAMYYCARTRQGYFDYWGQGTLVTVSS
VL: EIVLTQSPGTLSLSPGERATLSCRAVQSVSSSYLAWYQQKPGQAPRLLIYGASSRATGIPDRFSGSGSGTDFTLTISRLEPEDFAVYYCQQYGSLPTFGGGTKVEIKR
notes: Variable-region variant of GPC3.1, IgG1/kappa; also called variant antibody A
B3: Antibody B (antibody, human IgG1, kappa, V domains shown)
VH: EVQLVQSGAEVKKPGESLKISCKGSGYSFTRYWIAWVRQMPGKGLEWMGIIFPGDSHTGYSPSFRGQVTISADKSISTAYLQWSSLKASDTAMYYCARTREGYFDYWGQGTLVTVSS
VL: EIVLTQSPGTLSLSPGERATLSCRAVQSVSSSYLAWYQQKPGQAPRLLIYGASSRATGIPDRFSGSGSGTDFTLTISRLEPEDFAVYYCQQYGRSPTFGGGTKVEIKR
notes: Variable-region variant of GPC3.1, IgG1/kappa; also called variant antibody B

This experiment addresses T1, Glypican-3 (UniProt P51654 25-559, limits assumed).
T1 construct: also called GPC3
As to the kind of experiment: Biacore (SPR).
As for B1, the Kd (in general, the constant that tells how readily two partners part at equilibrium) is 0.9 nM; the off-rate constant (koff) – broadly, the rate constant with which the complex falls apart – turned out to be 0.0016 s⁻¹; the on-rate (kon) – broadly, the second-order rate constant of association – was 1.7e+06 M⁻¹ s⁻¹.
Taken in the same sequence, the figures for B2 were 2.7 nM, 0.0029 s⁻¹ and 1.1e+06 M⁻¹ s⁻¹.
Taken in the same sequence, the figures for B3 were 2.2 nM, 0.0036 s⁻¹ and 1.7e+06 M⁻¹ s⁻¹.

Source of the values: patent US20170326249A1 (Bristol-Myers Squibb, published 2017).
